Legend:
[1] = target: T1, protein A56 of the oncolytic virus WOTS-418 (vaccinia virus (WOTS-418, Western …, UniProt Q01218 17-314)); test: flow cytometry, MCF7 cells treated with WOTS-418
T1 construct: also called WOTS-418-A56; protein A56 variant

[2] = target: T1, protein A56 of the oncolytic virus …; test: flow cytometry, PC3 cells treated with WOTS-418 (overlay, FIG. 75)
[3] = target: T2, protein A56 of the oncolytic virus OTS-412 (vaccinia virus (OTS-412), UniProt P08714 17-315); test: flow cytometry, MCF7 cells treated with OTS-412
T2 construct: also called OTS-412-A56; protein A56 variant
T2 chain: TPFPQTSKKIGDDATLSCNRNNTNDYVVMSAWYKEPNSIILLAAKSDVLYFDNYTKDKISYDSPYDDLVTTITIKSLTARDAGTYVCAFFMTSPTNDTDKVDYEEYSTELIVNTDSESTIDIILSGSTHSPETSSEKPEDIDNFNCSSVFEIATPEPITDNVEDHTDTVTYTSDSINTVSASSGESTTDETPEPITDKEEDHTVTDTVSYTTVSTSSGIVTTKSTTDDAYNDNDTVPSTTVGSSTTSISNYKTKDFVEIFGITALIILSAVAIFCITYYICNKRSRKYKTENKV

[4] = target: T2, protein A56 of the oncolytic virus …; test: flow cytometry, PC3 cells treated with OTS-412
[5] = target: T2, protein A56 of the oncolytic virus …; test: flow cytometry, PC3 cells treated with OTS-412 (overlay, FIG. 74)
[6] = target: T1, protein A56 of the oncolytic virus …; test: flow cytometry, PC3 cells treated with WOTS-418

B1: A56-02B08 (Ab16) (antibody, V domains shown)
VH: QVQLQQSGPGLVKPSQTLSLTCAISGDSVSSNSAAWNWIRQSPSRGLEWLGRTYYRSKWYNDYAVSVKSRITINPDTSKNQFSLQLNSVTAVDTAVYYCAKSYAGPISYYYYGLDVWGQGTTVTVSS
VL: QSALTQPASVSGSPGQSVTISCTGTSSDIGRYNLVSWYQQHPGKAPKLMIYGGSKRPSGVSNRFSGSNSDNTASLTISGLRAEDEADYYCSSYASSSTPYVFGTGTKVTVL
[1]
  binding signal (flow cytometry, %): ≥ 80%
[2]
  binding signal (flow cytometry, %): ≥ 60%
[3]
  binding signal (flow cytometry, %): ≥ 80%
[4]
  binding signal (flow cytometry, %): ≥ 70%
[5]
  binding signal (flow cytometry, %): ≥ 60%
[6]
  binding signal (flow cytometry, %): ≥ 70%
